Patent US20240043537A1
Positions count from the first letter of the chain named.

What was measured:
[1] = target: CD3 (as used for the BIACORE kinetics of Table 11) (UniProt P07766); assay: SPR (BIACORE)
[2] = target: CD3 on T-cells (UniProt P07766); assay: cell-based or functional assay
Chain of CD3 on T-cells (P07766 23-207): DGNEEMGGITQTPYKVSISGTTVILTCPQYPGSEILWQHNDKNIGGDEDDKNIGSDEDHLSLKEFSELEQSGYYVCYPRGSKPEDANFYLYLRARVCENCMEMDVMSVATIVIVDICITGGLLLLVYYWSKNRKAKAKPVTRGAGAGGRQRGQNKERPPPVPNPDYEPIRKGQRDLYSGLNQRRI

Chain of CD3 (as used for the BIACORE kinetics of Table 11) (P07766 23-126): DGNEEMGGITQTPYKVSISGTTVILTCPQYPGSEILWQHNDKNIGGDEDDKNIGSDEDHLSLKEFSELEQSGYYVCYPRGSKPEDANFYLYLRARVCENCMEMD

B1: DART-A-M21 (bispecific antibody)
chain 1: DFVMTQSPDSLAVSLGERVTMSCKSSQSLLNSGNQKNYLTWYQQKPGQPPKLLIYWASTRESGVPDRFSGSGSGTDFTLTISSLQAEDVAVYYCQNDYSYPYTFGQGTKLEIKGGGSGGGGEVQLVESGGGLVQPGGSLRLSCAASGFTFSTYAMNWVRQAPGKGLEWVGRIRSKYNNYATYYADSVKDRFTISRDDSKNSLYLQMNSLKTEDTAVYYCVRHKNFGNSYVSFFAYWGQGTLVTVSSGGCGGGKVAALKEKVAALKEKVAALKEKVAALKE
chain 2: QAVVTQEPSLTVSPGGTVTLTCRSSTGAVTTSNYANWVQQKPGQAPRGLIGGTNKRAPWTPARFSGSLLGGKAALTITGAQAEDEADYYCALWYSNLWVFGGGTKLTVLGGGGSGGGGEVQLVQSGAELKKPGASVKVSCKASGYTFTDYYMKWVRQAPGQGLEWIGDIIPSNGATFYNQKFKGRVTITVDKSTSTAYMELSSLRSEDTAVYYCARSHLLRASWFAYWGQGTLVTVSSGGCGGGEVAALEKEVAALEKEVAALEKEVAALEK
Question: What does the source list for B1?
Answer: Kd [1]: 0.00418 µM; R (KD ratio to DART-A-WT) [1]: 0.5; R (ka ratio to DART-A-WT) [1]: 4.9; R (kd ratio to DART-A-WT) [1]: 2.5; koff [1]: 0.0103 s⁻¹; kon [1]: 2.45e+06 M⁻¹ s⁻¹; EC50 of cytolysis at 18 hours (CTL assay, Pan-T-cells and MOLM-13, E:T = 5:1) [2]: 0.026 ng/mL; R: ratio of 18 hour EC50 to DART-A-WT (CTL assay, Pan-T-cells and MOLM-13, E:T = 5:1) [2]: 0.3; R: ratio of 42 hour EC50 to DART-A-WT (CTL assay, Pan-T-cells and MOLM-13, E:T = 5:1) [2]: 0; max % CytoTox at 18 hours (CTL assay, Pan-T-cells and MOLM-13, E:T = 5:1) [2]: 36.5%; max % CytoTox at 42 hours (CTL assay, Pan-T-cells and MOLM-13, E:T = 5:1) [2]: 29.9%

B2: DART-A-M16 (bispecific antibody)
chain 1: B1 chain 1 with Y153D, K223G, F232W
chain 2: B1 chain 2
Question: What does the source list for B2?
Answer: Kd [1]: 0.301 µM; R (KD ratio to DART-A-WT) [1]: 37; R (ka ratio to DART-A-WT) [1]: 0.7; R (kd ratio to DART-A-WT) [1]: 25; koff [1]: 0.104 s⁻¹; kon [1]: 347000 M⁻¹ s⁻¹

B3: DART-A-M20 (bispecific antibody)
chain 1: B1 chain 1 with Y229G, F232W
chain 2: B1 chain 2
Question: Which results are given for B3?
Answer: Kd [1]: 0.0189 µM; R (KD ratio to DART-A-WT) [1]: 2.3; R (ka ratio to DART-A-WT) [1]: 7.7; R (kd ratio to DART-A-WT) [1]: 18; koff [1]: 0.0732 s⁻¹; kon [1]: 3.87e+06 M⁻¹ s⁻¹; EC50 of cytolysis at 18 hours (CTL assay, Pan-T-cells and MOLM-13, E:T = 5:1) [2]: 0.259 ng/mL; EC50 of cytolysis at 42 hours (CTL assay, Pan-T-cells and MOLM-13, E:T = 5:1) [2]: 0.038 ng/mL; R: ratio of 18 hour EC50 to DART-A-WT (CTL assay, Pan-T-cells and MOLM-13, E:T = 5:1) [2]: 3.3; R: ratio of 42 hour EC50 to DART-A-WT (CTL assay, Pan-T-cells and MOLM-13, E:T = 5:1) [2]: 13.5; max % CytoTox at 18 hours (CTL assay, Pan-T-cells and MOLM-13, E:T = 5:1) [2]: 37.5%; max % CytoTox at 42 hours (CTL assay, Pan-T-cells and MOLM-13, E:T = 5:1) [2]: 30.9%

B4: DART-A-M5 (bispecific antibody)
chain 1: B1 chain 1 with K223G, Y229G, F232W
chain 2: B1 chain 2
Question: What does the source list for B4?
Answer: Kd [1]: 0.0214 µM; R (KD ratio to DART-A-WT) [1]: 2.6; R (ka ratio to DART-A-WT) [1]: 2.6; R (kd ratio to DART-A-WT) [1]: 6.8; koff [1]: 0.028 s⁻¹; kon [1]: 1.31e+06 M⁻¹ s⁻¹; EC50 of cytolysis at 18 hours (CTL assay, Pan-T-cells and MOLM-13, E:T = 5:1) [2]: 0.225 ng/mL; EC50 of cytolysis at 42 hours (CTL assay, Pan-T-cells and MOLM-13, E:T = 5:1) [2]: 0.011 ng/mL; R: ratio of 18 hour EC50 to DART-A-WT (CTL assay, Pan-T-cells and MOLM-13, E:T = 5:1) [2]: 2.9; R: ratio of 42 hour EC50 to DART-A-WT (CTL assay, Pan-T-cells and MOLM-13, E:T = 5:1) [2]: 3.8; max % CytoTox at 18 hours (CTL assay, Pan-T-cells and MOLM-13, E:T = 5:1) [2]: 40.8%; max % CytoTox at 42 hours (CTL assay, Pan-T-cells and MOLM-13, E:T = 5:1) [2]: 28.4%

B5: DART-A-M10 (bispecific antibody)
chain 1: B1 chain 1 with K223G, F225I, F232W
chain 2: B1 chain 2
Question: How did the Kd [1] turn out when B5 was run?
Answer: Its Kd is 0.0433 µM.

Question: And the R (KD ratio to DART-A-WT) [1]?
Answer: The R (KD ratio to DART-A-WT) was 5.3.

Question: What about the R (ka ratio to DART-A-WT) [1] of the same binder?
Answer: Its R (ka ratio to DART-A-WT) is 1.4.

Question: And the R (kd ratio to DART-A-WT) [1]?
Answer: The R (kd ratio to DART-A-WT) was 7.6.

Question: What about the koff [1] of the same binder?
Answer: Its koff is 0.031 s⁻¹.

Question: What about the kon [1] of the same binder?
Answer: The kon was 717000 M⁻¹ s⁻¹.

Question: And the EC50 of cytolysis at 18 hours (CTL assay, Pan-T-cells and MOLM-13, E:T = 5:1) [2]?
Answer: The EC50 of cytolysis at 18 hours (CTL assay, Pan-T-cells and MOLM-13, E:T = 5:1) was 0.426 ng/mL.

Question: What about the EC50 of cytolysis at 42 hours (CTL assay, Pan-T-cells and MOLM-13, E:T = 5:1) [2] of the same binder?
Answer: Its EC50 of cytolysis at 42 hours (CTL assay, Pan-T-cells and MOLM-13, E:T = 5:1) is 0.095 ng/mL.

Question: And the R: ratio of 18 hour EC50 to DART-A-WT (CTL assay, Pan-T-cells and MOLM-13, E:T = 5:1) [2]?
Answer: The R: ratio of 18 hour EC50 to DART-A-WT (CTL assay, Pan-T-cells and MOLM-13, E:T = 5:1) was 5.4.

Question: What about the R: ratio of 42 hour EC50 to DART-A-WT (CTL assay, Pan-T-cells and MOLM-13, E:T = 5:1) [2] of the same binder?
Answer: Its R: ratio of 42 hour EC50 to DART-A-WT (CTL assay, Pan-T-cells and MOLM-13, E:T = 5:1) is 33.7.

Question: And the max % CytoTox at 18 hours (CTL assay, Pan-T-cells and MOLM-13, E:T = 5:1) [2]?
Answer: The max % CytoTox at 18 hours (CTL assay, Pan-T-cells and MOLM-13, E:T = 5:1) was 39.3%.

Question: And the max % CytoTox at 42 hours (CTL assay, Pan-T-cells and MOLM-13, E:T = 5:1) [2]?
Answer: Its max % CytoTox at 42 hours (CTL assay, Pan-T-cells and MOLM-13, E:T = 5:1) is 29.9%.
